Assay results published in patent US20200338203A1 (Bicycle, published 2020).
Where two headings read alike, the source gives them in different places. Each block holds one binder with its values, some of them ahead of it. Numbered stars: 1 amine (or outer) side, 2 acyl side, 3 side chain; on linkers, the order of the positions; unused ones are H or OH. Bridge positions count the residues as written; N and C are the ends. Square brackets hold non-standard residues; d marks the D form. Ends that are not written are not given here. DM1 = thiol-containing maytansine derivative (cytotoxic agent); AlexaFluor488 = AlexaFluor488 fluorescent dye label; disulphide linker of formula (B) = not defined here; K(FI) = lysine carrying a fluorescein label (FI); 1Nal = N[C@@H](Cc1cccc2ccccc12)C(=O)O; TBMB = c1c(C[*:1])cc(C[*:3])cc1C[*:2]; Gly(cPent) = N[C@H](C(=O)O)C1CCCC1; hArg = N=C(N)NCCCC[C@H](N)C(=O)O; Tle = CC(C)(C)[C@H](N)C(=O)O; AF488 = AlexaFluor488 label; Aib = CC(C)(N)C(=O)O; βAla = NCCC(=O)O; Sar = CNCC(=O)O

What was measured:
[1] = molecular target: rat EphA2 (Rat, UniProt D3ZBN3 27-205); experiment: FP direct binding, selectivity
Procedure: (§1) The gain used for analysis was determined for each tracer at the end of the 60 minutes where there was no protein in the well. Data was analysed using Systat Sigmaplot version 12.0. mP values were fit to a user defined quadratic equation to generate a Kd value: f=ymin+(ymax−ymin)/Lig*((x+Lig+Kd)/2-sqrt((((x+Lig+Kd)/2)\hat{ }2)−(Lig*x))). “Lig” was a defined value of the concentration of tracer used.

[2] = molecular target: dog EphA2 (Dog, UniProt A0A286R219 28-206); experiment: FP direct binding, selectivity
Procedure: as §1

[3] = molecular target: dog EphA2 (Dog); experiment: FP direct binding, selectivity
[4] = molecular target: rat EphA3 (Rat) (UniProt O08680); experiment: FP direct binding, selectivity
[5] = molecular target: Human & mouse EphA3 (Human & mouse) (UniProt P29320); experiment: FP direct binding, selectivity
[6] = molecular target: human EphA4 (Human) (UniProt P54764); experiment: FP direct binding, selectivity
[7] = molecular target: rat & mouse EphA4 (rat & mouse) (UniProt D3ZZK3); experiment: FP direct binding, selectivity
[8] = molecular target: T1, Mouse EphA2 (Ecto) (Mouse, UniProt Q03145 26-538); experiment: FP direct binding
T1 construct: extracellular domain; not shown: Fc fusion or C-terminal polyHis

[9] = molecular target: T2, Human EphA2 (Ecto) (Human, UniProt P29317 24-537); experiment: FP direct binding
T2 construct: extracellular domain

[10] = molecular target: T3, rat EphB1 (Rat, UniProt P09759 18-540); experiment: FP direct binding, selectivity
T3 construct: extracellular domain; also called EphB1 (Ecto), Rat
T3 sequence (looked up): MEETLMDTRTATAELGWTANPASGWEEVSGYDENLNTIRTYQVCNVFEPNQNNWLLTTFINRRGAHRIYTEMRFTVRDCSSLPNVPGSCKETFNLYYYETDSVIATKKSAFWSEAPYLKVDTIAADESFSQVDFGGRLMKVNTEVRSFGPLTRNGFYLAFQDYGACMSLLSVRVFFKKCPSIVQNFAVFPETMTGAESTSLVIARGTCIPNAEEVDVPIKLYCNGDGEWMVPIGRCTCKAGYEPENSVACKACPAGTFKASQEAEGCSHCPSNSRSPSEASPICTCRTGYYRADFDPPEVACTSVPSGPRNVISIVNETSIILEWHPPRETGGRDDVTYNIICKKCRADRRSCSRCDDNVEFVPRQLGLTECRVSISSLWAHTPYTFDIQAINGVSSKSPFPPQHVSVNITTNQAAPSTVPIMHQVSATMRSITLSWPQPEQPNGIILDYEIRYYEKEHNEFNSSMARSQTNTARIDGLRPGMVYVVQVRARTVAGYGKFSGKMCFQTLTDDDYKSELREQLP
Procedure: as §1

[11] = molecular target: T4, mouse EphA2 (Mouse, UniProt Q03145 26-538); experiment: FP direct binding, selectivity
T4 construct: extracellular domain; C-terminal polyHis; also called EphA2 (Ecto), Mouse
Procedure: as §1

[12] = molecular target: T5, Human EphA1 (Human, UniProt P21709 26-547); experiment: FP direct binding, selectivity
T5 construct: extracellular domain; also called EphA1 (Ecto), Human
T5 sequence (looked up): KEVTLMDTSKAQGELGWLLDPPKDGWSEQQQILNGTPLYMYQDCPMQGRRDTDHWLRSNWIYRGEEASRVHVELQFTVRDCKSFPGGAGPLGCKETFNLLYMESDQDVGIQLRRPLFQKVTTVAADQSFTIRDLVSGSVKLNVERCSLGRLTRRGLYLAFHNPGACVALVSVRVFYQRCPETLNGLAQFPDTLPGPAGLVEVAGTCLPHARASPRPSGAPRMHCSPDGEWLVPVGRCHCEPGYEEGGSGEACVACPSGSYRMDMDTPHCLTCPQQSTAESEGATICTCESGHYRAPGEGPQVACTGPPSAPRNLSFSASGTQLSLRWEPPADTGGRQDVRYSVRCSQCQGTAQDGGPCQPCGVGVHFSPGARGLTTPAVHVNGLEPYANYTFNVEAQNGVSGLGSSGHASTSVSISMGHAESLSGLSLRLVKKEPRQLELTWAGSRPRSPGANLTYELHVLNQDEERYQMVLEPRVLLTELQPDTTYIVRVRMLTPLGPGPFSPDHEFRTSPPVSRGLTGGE
Procedure: as §1

[13] = molecular target: T2, Human EphA2 (Ecto); experiment: FP competition; competitor Compound 1
Procedure: (§2) Peptides without a fluorescent tag were tested in competition with a peptide with a fluorescent tag and a known Kd (Table 2). Peptides were diluted to an appropriate concentration in assay buffer as described in the direct binding assay with a maximum of 5% DMSO, then serially diluted 1 in 2. Five μL of diluted peptide was added to the plate followed by 10 μL of human or mouse EphA2 (Table 1) at a fixed concentration which was dependent on the fluorescent peptide used (Table 2), then 10 μL fluorescent peptide added. Measurements were conducted as for the direct binding assay, however the gain was determined prior to the first measurement.

[14] = molecular target: T2, Human EphA2 (Ecto); experiment: FP competition; competitor Compound 66
Procedure: as §2

[15] = molecular target: T2, Human EphA2 (Ecto); experiment: FP competition; competitor Compound 12
Procedure: as §2

[16] = molecular target: T2, Human EphA2 (Ecto); experiment: FP direct binding; remark: listed apart in the source
Procedure: as §1

[17] = molecular target: T6, Human EphA2 (Human, UniProt P29317 24-537); experiment: FP competition; competitor: fluorescent Compound 12
T6 construct: extracellular domain; also called EphA2 (Ecto), Human
Procedure: as §2

[18] = molecular target: T1, Mouse EphA2 (Ecto); experiment: FP direct binding; remark: listed apart in the source
Procedure: as §1

Human & mouse EphA3 (Human & mouse), sequence (P29320 21-541): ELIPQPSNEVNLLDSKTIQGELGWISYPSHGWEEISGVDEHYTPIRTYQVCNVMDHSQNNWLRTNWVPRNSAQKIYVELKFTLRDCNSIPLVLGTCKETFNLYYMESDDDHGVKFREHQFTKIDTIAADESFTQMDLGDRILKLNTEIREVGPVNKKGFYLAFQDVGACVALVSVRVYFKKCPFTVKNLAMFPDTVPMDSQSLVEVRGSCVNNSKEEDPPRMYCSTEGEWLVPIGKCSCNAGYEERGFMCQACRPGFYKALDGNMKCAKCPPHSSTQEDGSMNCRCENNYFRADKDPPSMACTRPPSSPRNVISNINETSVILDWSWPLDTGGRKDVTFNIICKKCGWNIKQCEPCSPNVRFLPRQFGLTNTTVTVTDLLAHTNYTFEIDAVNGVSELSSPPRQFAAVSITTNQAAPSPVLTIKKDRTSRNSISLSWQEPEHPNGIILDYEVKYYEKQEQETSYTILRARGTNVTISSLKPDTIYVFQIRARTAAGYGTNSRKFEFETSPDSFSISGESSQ
T1 sequence (Q03145 26-538): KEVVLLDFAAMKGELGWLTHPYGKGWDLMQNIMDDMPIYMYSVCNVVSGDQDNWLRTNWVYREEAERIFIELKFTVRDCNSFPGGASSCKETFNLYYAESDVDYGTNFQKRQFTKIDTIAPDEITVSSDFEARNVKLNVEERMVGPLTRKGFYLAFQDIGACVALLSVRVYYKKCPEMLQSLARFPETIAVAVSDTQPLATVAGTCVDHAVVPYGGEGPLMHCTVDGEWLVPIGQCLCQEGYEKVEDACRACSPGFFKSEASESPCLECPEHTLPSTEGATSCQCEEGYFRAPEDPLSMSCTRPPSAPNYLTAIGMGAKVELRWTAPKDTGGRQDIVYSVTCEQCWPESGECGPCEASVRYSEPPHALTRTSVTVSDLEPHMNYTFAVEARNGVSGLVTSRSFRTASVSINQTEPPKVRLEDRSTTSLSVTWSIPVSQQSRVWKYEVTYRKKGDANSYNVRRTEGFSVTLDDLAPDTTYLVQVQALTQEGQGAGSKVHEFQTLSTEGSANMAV
T4 sequence (Q03145 26-538): as above
T2 sequence (P29317 24-537): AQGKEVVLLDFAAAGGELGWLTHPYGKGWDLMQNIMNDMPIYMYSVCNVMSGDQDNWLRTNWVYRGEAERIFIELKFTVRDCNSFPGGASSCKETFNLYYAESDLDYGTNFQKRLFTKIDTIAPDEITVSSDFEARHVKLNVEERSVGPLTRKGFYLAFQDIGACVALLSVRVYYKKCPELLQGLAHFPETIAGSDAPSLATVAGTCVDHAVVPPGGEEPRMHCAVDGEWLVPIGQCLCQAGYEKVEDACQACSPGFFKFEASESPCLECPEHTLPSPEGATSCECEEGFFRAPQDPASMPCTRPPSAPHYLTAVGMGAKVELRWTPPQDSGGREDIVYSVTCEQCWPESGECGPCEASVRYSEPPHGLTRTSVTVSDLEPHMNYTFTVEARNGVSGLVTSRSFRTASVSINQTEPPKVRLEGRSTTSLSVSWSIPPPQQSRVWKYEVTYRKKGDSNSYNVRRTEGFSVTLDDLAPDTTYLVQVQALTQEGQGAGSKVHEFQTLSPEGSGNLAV
human EphA4 (Human), sequence (P54764 20-547): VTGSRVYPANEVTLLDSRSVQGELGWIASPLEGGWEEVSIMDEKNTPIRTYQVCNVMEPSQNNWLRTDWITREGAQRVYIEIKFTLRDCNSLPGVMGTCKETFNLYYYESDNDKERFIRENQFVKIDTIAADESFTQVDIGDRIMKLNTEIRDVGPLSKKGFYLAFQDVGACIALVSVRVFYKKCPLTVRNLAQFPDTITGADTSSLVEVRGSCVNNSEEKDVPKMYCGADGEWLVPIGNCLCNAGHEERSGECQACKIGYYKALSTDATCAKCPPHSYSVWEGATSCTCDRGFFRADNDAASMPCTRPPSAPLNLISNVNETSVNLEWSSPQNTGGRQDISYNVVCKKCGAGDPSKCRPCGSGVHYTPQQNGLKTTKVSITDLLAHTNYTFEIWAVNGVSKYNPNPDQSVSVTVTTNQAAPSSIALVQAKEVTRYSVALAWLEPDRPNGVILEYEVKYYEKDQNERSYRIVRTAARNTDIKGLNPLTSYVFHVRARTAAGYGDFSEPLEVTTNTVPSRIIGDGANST
rat EphA3 (Rat), sequence (O08680 21-541): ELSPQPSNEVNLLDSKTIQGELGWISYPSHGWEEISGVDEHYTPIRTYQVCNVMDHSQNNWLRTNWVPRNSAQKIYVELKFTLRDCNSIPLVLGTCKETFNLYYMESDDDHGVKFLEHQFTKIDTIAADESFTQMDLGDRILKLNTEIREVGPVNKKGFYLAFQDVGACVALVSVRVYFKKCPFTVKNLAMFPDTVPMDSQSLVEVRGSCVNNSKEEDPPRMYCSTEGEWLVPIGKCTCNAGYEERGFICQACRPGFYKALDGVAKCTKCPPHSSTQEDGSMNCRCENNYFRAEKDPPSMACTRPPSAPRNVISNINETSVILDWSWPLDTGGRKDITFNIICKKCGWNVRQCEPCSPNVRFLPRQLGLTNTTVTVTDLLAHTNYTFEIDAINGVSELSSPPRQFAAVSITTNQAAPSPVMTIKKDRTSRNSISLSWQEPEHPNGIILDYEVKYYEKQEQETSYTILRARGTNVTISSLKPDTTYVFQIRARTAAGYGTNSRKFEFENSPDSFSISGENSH
T6 sequence (P29317 24-537): as the sequence (P29317 24-537) above

Kd [1]: 0.0159 µM | Kd [2]: 0.0319 µM
Binder: {AlexaFluor488-βAla}-[Sar][Sar][Sar][Sar][Sar][Sar][Sar][Sar][Sar][Sar]ACPWGPFWCPVNRPGC (linker 12-19-26 via TBMB, bicyclic peptide, fluorescent) [Compound 68]

Kd [3]: 0.00499 µM | Kd [4]: 0.297 µM | Kd [5]: 0.129 µM | Kd [6]: 1.5 µM | Kd [7]: 2.54 µM | Kd [8]: 0.0038 µM | Kd [9]: 0.00217 µM | Kd [1]: 0.001 µM | Kd [10]: 5.42 µM | Kd [11]: 0.0038 µM | Kd [12]: 7.26 µM
Binder: {AF488-βAla}-[Sar][Sar][Sar][Sar][Sar][Sar][Sar][Sar][Sar][Sar]H[dD]VPCP[1Nal]G[Aib]F[1Nal]CP[Tle]NR[Aib][dD]C (linker 15-22-29 via TBMB) [Compound 145]

Kd [3]: 0.0133 µM | Kd [4]: 0.137 µM | Kd [6]: 238 µM | Kd [7]: 1.89 µM | Kd [8]: 0.0065 µM | Kd [9]: 0.00265 µM | Kd [1]: 0.00233 µM | Kd [11]: 0.0065 µM
Binder: {AF488-βAla}-[Sar][Sar][Sar][Sar][Sar][Sar][Sar][Sar][Sar][Sar]H[dD]VPC[Aib][1Nal]G[Aib]F[1Nal]CP[Tle]NR[Aib][dD]C (linker 15-22-29 via TBMB) [Compound 141]

Kd [1]: 0.00036 µM | Kd [11]: 0.0008 µM | Kd [2]: 0.00217 µM
Binder: {AF488-βAla}-[Sar][Sar][Sar][Sar][Sar][Sar][Sar][Sar][Sar][Sar]H[dD]VPCPWGPFWCPVNRPGCA (linker 15-22-29 via TBMB, bicyclic peptide, fluorescent)

Kd [3]: 0.00439 µM | Kd [5]: 0.166 µM | Kd [8]: 0.00256 µM | Kd [9]: 0.00104 µM | Kd [1]: 0.00125 µM | Kd [10]: 1.44 µM | Kd [11]: 0.00256 µM | Kd [12]: 1.71 µM
Binder: {AF488-βAla}-[Sar][Sar][Sar][Sar][Sar][Sar][Sar][Sar][Sar][Sar]H[dD]VPCP[1Nal]G[Aib]F[1Nal]CP[Tle]NR[Aib]GC (linker 15-22-29 via TBMB) [Compound 144]

Kd [3]: 0.00358 µM | Kd [4]: 0.221 µM | Kd [5]: 0.0825 µM | Kd [6]: 7440 µM | Kd [7]: 1000 µM | Kd [8]: 0.00344 µM | Kd [9]: 0.00107 µM | Kd [1]: 0.00115 µM | Kd [11]: 0.00344 µM | Kd [12]: 1.22 µM
Binder: {AF488-βAla}-[Sar][Sar][Sar][Sar][Sar][Sar][Sar][Sar][Sar][Sar]H[dD][Gly(cPent)]PCP[1Nal]G[Aib]F[1Nal]CP[Tle]N[hArg]P[dD]C (linker 15-22-29 via TBMB) [Compound 147]

Kd [18]: 0.0008 µM | Kd [16]: 0.00031 µM
Binder: {AF488-βAla}-[Sar][Sar][Sar][Sar][Sar][Sar][Sar][Sar][Sar][Sar]H[dD]VPCPWGPFWCPVNRPGCA (linker 15-22-29 via TBMB)

The remaining lines, values behind:

Binder: ACPWGPFWCPVNRPGC (N-terminal AlexaFluor488-G-Sar5 before the entry; three Cys cyclised on TBMB, bicyclic peptide, fluorescent) [Compound 67]
Kd [1]: 0.0265 µM | Kd [2]: 0.0614 µM

Binder: ACRNIPTMCPFGPVWCA (linker 2-9-16 via TBMB) [Compound 32]
Ki [13]: 0.0834 µM

Binder: ACVPQGIWCALQFEPCA (linker 2-9-16 via TBMB) [Compound 63]
Ki [13]: 0.144 µM | Ki [14]: 0.0825 µM | Ki [15]: 0.0922 µM

Binder: ACMNDWLCQLGWTCA[Sar][Sar][Sar][Sar][Sar][Sar]-{K(FI)} (linker 2-8-14 via TBMB) [Compound 6]
Kd [16]: 0.00425 µM

Binder: ACPWGPAWCPVNRPGCAGAAA (linker 2-9-16 via TBMB) [Compound 45]
Ki [14]: 0.117 µM | Ki [15]: 0.0992 µM

B1: BDC-5 (peptide)
peptide: {DM1-disulphide linker of formula (B)-βAla}-[Sar][Sar][Sar][Sar][Sar][Sar][Sar][Sar][Sar][Sar]ACPWAPFWCAVNRPGC
modifications: linker 12-19-26 via TBMB; reading uncertain
notes: DM1 conjugate; also called Bicyclic Peptide Drug Conjugate BDC-5; Compound 303, Formula (B)
Ki [17]: > 1 µM

Binder: ADVTCPWGPFWCPVNRPGCA (N-terminal Fl-G-Sar5 before the entry; three Cys cyclised on TBMB, bicyclic peptide, fluorescent) [Compound 18]
Kd [1]: 0.00172 µM | Kd [10]: 1.42 µM | Kd [11]: 0.00402 µM | Kd [2]: 0.00357 µM

Binder: ACTTGSIWCALQFEPCA (linker 2-9-16 via TBMB) [Compound 64]
Ki [14]: 0.0634 µM | Ki [15]: 0.41 µM

Binder: ACPWGPAWCPVHGKTCA (linker 2-9-16 via TBMB) [Compound 41]
Ki [13]: 0.263 µM
